Source: US20260209293A1 (Novo Nordisk, published 2026)
*1 amine or outer side, *2 acyl side, *3 side chain or, on linkers, in order; H or OH if unused. Side-chain parts run from the residue outwards. The star is where a group is joined. C20 diacid = O=C(O)CCCCCCCCCCCCCCCCCCC(=O)*; C18 diacid = O=C(O)CCCCCCCCCCCCCCCCC(=O)*; γGlu = O=C(O)[C@H](CCC(=O)[*:2])N[*:1]

T1: human calcitonin receptor (a) (human, UniProt P30988 25-474)
T1 sequence (looked up): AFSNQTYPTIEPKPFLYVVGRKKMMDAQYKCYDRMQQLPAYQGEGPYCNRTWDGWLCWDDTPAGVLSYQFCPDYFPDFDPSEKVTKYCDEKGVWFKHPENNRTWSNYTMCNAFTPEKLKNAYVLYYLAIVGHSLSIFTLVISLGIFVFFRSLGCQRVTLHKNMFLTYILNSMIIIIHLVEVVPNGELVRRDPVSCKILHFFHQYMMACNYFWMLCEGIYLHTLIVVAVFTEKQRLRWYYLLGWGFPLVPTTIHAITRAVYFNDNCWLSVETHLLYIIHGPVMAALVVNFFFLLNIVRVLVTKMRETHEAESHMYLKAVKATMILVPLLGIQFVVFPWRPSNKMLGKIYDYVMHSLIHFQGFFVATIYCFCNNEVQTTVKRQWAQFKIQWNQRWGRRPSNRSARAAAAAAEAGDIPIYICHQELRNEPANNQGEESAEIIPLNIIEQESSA

T2: human amylin-3(a) receptor (human, UniProt P30988 25-474; O60896 24-148)
T2 sequence (looked up) 1: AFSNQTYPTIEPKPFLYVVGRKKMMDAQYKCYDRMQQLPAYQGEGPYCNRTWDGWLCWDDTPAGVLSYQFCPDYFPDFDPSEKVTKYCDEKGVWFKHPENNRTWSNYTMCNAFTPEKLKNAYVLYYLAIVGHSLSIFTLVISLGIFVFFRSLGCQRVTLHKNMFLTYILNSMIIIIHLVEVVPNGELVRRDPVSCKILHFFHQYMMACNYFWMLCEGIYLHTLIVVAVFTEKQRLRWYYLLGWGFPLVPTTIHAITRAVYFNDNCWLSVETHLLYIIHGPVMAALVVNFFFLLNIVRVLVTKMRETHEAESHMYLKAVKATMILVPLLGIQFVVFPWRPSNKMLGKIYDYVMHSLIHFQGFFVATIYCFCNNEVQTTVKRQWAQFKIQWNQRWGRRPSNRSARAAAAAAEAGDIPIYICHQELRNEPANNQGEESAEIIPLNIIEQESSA
T2 sequence (looked up) 2: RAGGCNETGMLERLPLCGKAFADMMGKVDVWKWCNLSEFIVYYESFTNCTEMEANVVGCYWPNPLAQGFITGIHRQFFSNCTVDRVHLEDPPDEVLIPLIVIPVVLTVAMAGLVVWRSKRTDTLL


Tests used:
[1] = target: T1, human calcitonin receptor (a); experiment: cell-based or functional assay
[2] = target: T2, human amylin-3(a) receptor; experiment: cell-based or functional assay

| Binder | hCalcR potency, EC50 (pM); CRE-luciferase reporter in BHK cells [1] [pM] | hAmyR3 potency, EC50 (pM); CRE-luciferase reporter in BHK cells [2] [pM] |
| --- | --- | --- |
| {C18 diacid-γGlu}-ASHLSTAQTARLAEFLHHSSDPFGAIPSSTDVGPDTY-NH2 (SMILES CC[C@H](C)[C@H](NC(=O)[C@H](C)NC(=O)CNC(=O)[C@H](Cc1ccccc1)NC(=O)[C@@H]1CCCN1C(=O)[C@H](CC(=O)O)NC(=O)[C@H](CO)NC(=O)[C@H](CO)NC(=O)[C@H](Cc1c[nH]cn1)NC(=O)[C@H](Cc1c[nH]cn1)NC(=O)[C@H](CC(C)C)NC(=O)[C@H](Cc1ccccc1)NC(=O)[C@H](CCC(=O)O)NC(=O)[C@H](C)NC(=O)[C@H](CC(C)C)NC(=O)[C@H](CCCNC(=N)N)NC(=O)[C@H](C)NC(=O)[C@@H](NC(=O)[C@H](CCC(N)=O)NC(=O)[C@H](C)NC(=O)[C@@H](NC(=O)[C@H](CO)NC(=O)[C@H](CC(C)C)NC(=O)[C@H](Cc1c[nH]cn1)NC(=O)[C@H](CO)NC(=O)[C@H](C)NC(=O)CC[C@H](NC(=O)CCCCCCCCCCCCCCCCC(=O)O)C(=O)O)[C@@H](C)O)[C@@H](C)O)C(=O)N1CCC[C@H]1C(=O)N[C@@H](CO)C(=O)N[C@@H](CO)C(=O)N[C@H](C(=O)N[C@@H](CC(=O)O)C(=O)N[C@H](C(=O)NCC(=O)N1CCC[C@H]1C(=O)N[C@@H](CC(=O)O)C(=O)N[C@H](C(=O)N[C@@H](Cc1ccc(O)cc1)C(N)=O)[C@@H](C)O)C(C)C)[C@@H](C)O) | 2.16 | 1.68 |
| {C20 diacid-γGlu}-ASHLSTAQTARLAEFLHHSSDPFGAIPSSTDVGPDTP-NH2 (SMILES CC[C@H](C)[C@H](NC(=O)[C@H](C)NC(=O)CNC(=O)[C@H](Cc1ccccc1)NC(=O)[C@@H]1CCCN1C(=O)[C@H](CC(=O)O)NC(=O)[C@H](CO)NC(=O)[C@H](CO)NC(=O)[C@H](Cc1c[nH]cn1)NC(=O)[C@H](Cc1c[nH]cn1)NC(=O)[C@H](CC(C)C)NC(=O)[C@H](Cc1ccccc1)NC(=O)[C@H](CCC(=O)O)NC(=O)[C@H](C)NC(=O)[C@H](CC(C)C)NC(=O)[C@H](CCCNC(=N)N)NC(=O)[C@H](C)NC(=O)[C@@H](NC(=O)[C@H](CCC(N)=O)NC(=O)[C@H](C)NC(=O)[C@@H](NC(=O)[C@H](CO)NC(=O)[C@H](CC(C)C)NC(=O)[C@H](Cc1c[nH]cn1)NC(=O)[C@H](CO)NC(=O)[C@H](C)NC(=O)CC[C@H](NC(=O)CCCCCCCCCCCCCCCCCCC(=O)O)C(=O)O)[C@@H](C)O)[C@@H](C)O)C(=O)N1CCC[C@H]1C(=O)N[C@@H](CO)C(=O)N[C@@H](CO)C(=O)N[C@H](C(=O)N[C@@H](CC(=O)O)C(=O)N[C@H](C(=O)NCC(=O)N1CCC[C@H]1C(=O)N[C@@H](CC(=O)O)C(=O)N[C@H](C(=O)N1CCC[C@H]1C(N)=O)[C@@H](C)O)C(C)C)[C@@H](C)O) | 1.41 | 1.05 |
| Ac-ASHLSTAQTARLAEFLHHSSDPFGK([γGlu-C18 diacid])IPSSTDVGPDTP-NH2 (SMILES CC[C@H](C)[C@H](NC(=O)[C@H](CCCCNC(=O)CC[C@H](NC(=O)CCCCCCCCCCCCCCCCC(=O)O)C(=O)O)NC(=O)CNC(=O)[C@H](Cc1ccccc1)NC(=O)[C@@H]1CCCN1C(=O)[C@H](CC(=O)O)NC(=O)[C@H](CO)NC(=O)[C@H](CO)NC(=O)[C@H](Cc1c[nH]cn1)NC(=O)[C@H](Cc1c[nH]cn1)NC(=O)[C@H](CC(C)C)NC(=O)[C@H](Cc1ccccc1)NC(=O)[C@H](CCC(=O)O)NC(=O)[C@H](C)NC(=O)[C@H](CC(C)C)NC(=O)[C@H](CCCNC(=N)N)NC(=O)[C@H](C)NC(=O)[C@@H](NC(=O)[C@H](CCC(N)=O)NC(=O)[C@H](C)NC(=O)[C@@H](NC(=O)[C@H](CO)NC(=O)[C@H](CC(C)C)NC(=O)[C@H](Cc1c[nH]cn1)NC(=O)[C@H](CO)NC(=O)[C@H](C)NC(C)=O)[C@@H](C)O)[C@@H](C)O)C(=O)N1CCC[C@H]1C(=O)N[C@@H](CO)C(=O)N[C@@H](CO)C(=O)N[C@H](C(=O)N[C@@H](CC(=O)O)C(=O)N[C@H](C(=O)NCC(=O)N1CCC[C@H]1C(=O)N[C@@H](CC(=O)O)C(=O)N[C@H](C(=O)N1CCC[C@H]1C(N)=O)[C@@H](C)O)C(C)C)[C@@H](C)O) | 1.29 | 1.38 |

Continued, values first:

| hCalcR potency, EC50 (pM); CRE-luciferase reporter in BHK cells [1] [pM] | hAmyR3 potency, EC50 (pM); CRE-luciferase reporter in BHK cells [2] [pM] | Binder |
| --- | --- | --- |
| 3.15 | 1.97 | {C18 diacid-γGlu}-ASHLSTAQTARLAEFLHHSSDNFGPILPPTDVGSNTY-NH2 (SMILES CC[C@H](C)[C@H](NC(=O)[C@@H]1CCCN1C(=O)CNC(=O)[C@H](Cc1ccccc1)NC(=O)[C@H](CC(N)=O)NC(=O)[C@H](CC(=O)O)NC(=O)[C@H](CO)NC(=O)[C@H](CO)NC(=O)[C@H](Cc1c[nH]cn1)NC(=O)[C@H](Cc1c[nH]cn1)NC(=O)[C@H](CC(C)C)NC(=O)[C@H](Cc1ccccc1)NC(=O)[C@H](CCC(=O)O)NC(=O)[C@H](C)NC(=O)[C@H](CC(C)C)NC(=O)[C@H](CCCNC(=N)N)NC(=O)[C@H](C)NC(=O)[C@@H](NC(=O)[C@H](CCC(N)=O)NC(=O)[C@H](C)NC(=O)[C@@H](NC(=O)[C@H](CO)NC(=O)[C@H](CC(C)C)NC(=O)[C@H](Cc1c[nH]cn1)NC(=O)[C@H](CO)NC(=O)[C@H](C)NC(=O)CC[C@H](NC(=O)CCCCCCCCCCCCCCCCC(=O)O)C(=O)O)[C@@H](C)O)[C@@H](C)O)C(=O)N[C@@H](CC(C)C)C(=O)N1CCC[C@H]1C(=O)N1CCC[C@H]1C(=O)N[C@H](C(=O)N[C@@H](CC(=O)O)C(=O)N[C@H](C(=O)NCC(=O)N[C@@H](CO)C(=O)N[C@@H](CC(N)=O)C(=O)N[C@H](C(=O)N[C@@H](Cc1ccc(O)cc1)C(N)=O)[C@@H](C)O)C(C)C)[C@@H](C)O) |
| 1.16 | 1.16 | Ac-ASHLSTAQTARLAEFLHHSSDNFGK([γGlu-C18 diacid])ILPPTDVGSNTP-NH2 (SMILES CC[C@H](C)[C@H](NC(=O)[C@H](CCCCNC(=O)CC[C@H](NC(=O)CCCCCCCCCCCCCCCCC(=O)O)C(=O)O)NC(=O)CNC(=O)[C@H](Cc1ccccc1)NC(=O)[C@H](CC(N)=O)NC(=O)[C@H](CC(=O)O)NC(=O)[C@H](CO)NC(=O)[C@H](CO)NC(=O)[C@H](Cc1c[nH]cn1)NC(=O)[C@H](Cc1c[nH]cn1)NC(=O)[C@H](CC(C)C)NC(=O)[C@H](Cc1ccccc1)NC(=O)[C@H](CCC(=O)O)NC(=O)[C@H](C)NC(=O)[C@H](CC(C)C)NC(=O)[C@H](CCCNC(=N)N)NC(=O)[C@H](C)NC(=O)[C@@H](NC(=O)[C@H](CCC(N)=O)NC(=O)[C@H](C)NC(=O)[C@@H](NC(=O)[C@H](CO)NC(=O)[C@H](CC(C)C)NC(=O)[C@H](Cc1c[nH]cn1)NC(=O)[C@H](CO)NC(=O)[C@H](C)NC(C)=O)[C@@H](C)O)[C@@H](C)O)C(=O)N[C@@H](CC(C)C)C(=O)N1CCC[C@H]1C(=O)N1CCC[C@H]1C(=O)N[C@H](C(=O)N[C@@H](CC(=O)O)C(=O)N[C@H](C(=O)NCC(=O)N[C@@H](CO)C(=O)N[C@@H](CC(N)=O)C(=O)N[C@H](C(=O)N1CCC[C@H]1C(N)=O)[C@@H](C)O)C(C)C)[C@@H](C)O) |
